{"source": "paper PMC1182330", "key": {"[1]": {"test_system": "RNase M5 WT (Bacillus subtilis)"}, "[2]": {"test_system": "RNase M5 WT;ribosomal protein L18 (Bacillus subtilis;Bacillus subtilis)"}}}
{"substance": "5S rRNA precursor (pre-5S)", "values": [{"measurement": "K half", "setting": "[1]", "value": 2000, "unit": "nM"}, {"measurement": "binding signal (fold higher affinity than without L18)", "setting": "[2]", "value": 10}]}
